Experimental findings from patent publication US20150344580A1 (MSM PROTEIN TECHNOLOGIES, published 2015) are described below.

The target of assay [1] is T1, cyno CXCR3 (cynomolgus monkey, UniProt A0A2K5UV19 1-368).
T1 construct: whole, on cells; CHO cells
T1 sequence: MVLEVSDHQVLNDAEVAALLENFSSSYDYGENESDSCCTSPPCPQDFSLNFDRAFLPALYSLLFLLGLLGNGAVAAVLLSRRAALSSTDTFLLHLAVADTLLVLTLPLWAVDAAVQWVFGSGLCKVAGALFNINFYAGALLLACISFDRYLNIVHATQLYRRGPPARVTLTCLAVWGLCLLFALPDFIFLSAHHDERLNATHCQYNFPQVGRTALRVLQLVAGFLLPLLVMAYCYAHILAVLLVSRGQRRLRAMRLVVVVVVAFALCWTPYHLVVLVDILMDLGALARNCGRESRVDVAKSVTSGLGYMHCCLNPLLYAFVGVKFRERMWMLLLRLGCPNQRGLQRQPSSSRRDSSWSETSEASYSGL
The assay is described as follows: FACS, CHO-cyno CXCR3 cells. The protocol:
(§1) In more details, the cell staining procedure was: 5000-1000 cell suspension in 10 μl FACS buffer (1×PBS, 2.0% FBS, 0.2% sodium azide) was mixed with 10 μl of 200 nM the corresponding anti-CCR7 MAB and incubated on ice for 30 min. Washing step—after the incubation 150 μl of FACS buffer was added to the cell sample, the samples were mixed gently by up-down pipetting the cell suspension. Then the samples were centrifuged at 1100 rpm for 5 minutes, and supernatants were removed. Washing step was repeated ones. Then 10 μl of anti-human PE-(Fab)2 form Jackson Immuno Research Lab. #709-116-098 diluted 40 times in FACS buffer were added to the cells and the cells were re-suspended by up-down pipetting. After 20 min. incubation on ice in dark the washing step was repeated twice. The washed cells were mixed with 100 μl of FIX buffer (0.5% Paraformaldehyde solution in PBS). Fixed samples were stored in dark on ice and analyzed by FACS on Guava PCA-96 flow cytometer. The fluorescent signals collected from individual cells were obtained using fluorescence Activated Cell Sorter (FACS).
On the technique in general: Flow cytometry measures light scatter and fluorescence of single cells or particles in a stream.

The target of assay [2] is T2, human CCR4 (human, UniProt P51679 1-360).
T2 construct: whole, on cells; CHO cells
T2 sequence (looked up): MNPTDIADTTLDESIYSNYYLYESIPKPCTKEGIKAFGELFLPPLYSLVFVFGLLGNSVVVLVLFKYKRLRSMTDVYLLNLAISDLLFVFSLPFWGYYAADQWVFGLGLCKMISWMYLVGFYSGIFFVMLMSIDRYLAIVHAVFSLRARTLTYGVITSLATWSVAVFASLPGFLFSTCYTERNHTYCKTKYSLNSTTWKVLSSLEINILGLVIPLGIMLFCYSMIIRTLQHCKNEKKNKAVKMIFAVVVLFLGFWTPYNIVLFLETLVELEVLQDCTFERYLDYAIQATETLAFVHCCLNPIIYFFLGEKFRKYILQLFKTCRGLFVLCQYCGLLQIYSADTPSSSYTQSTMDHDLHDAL
The assay is described as follows: FACS, CHO-human CCR4 cells. The method, then: as §1, with “Washing” for “In more details, the cell staining procedure was: 5000-1000 cell suspension in 10 μl FACS buffer (1×PBS, 2.0% FBS, 0.2% sodium azide) was mixed with 10 μl of 200 nM the corresponding anti-CCR7 MAB and incubated on ice for 30 min. Washing”, “cytometer.” for “cytometer. The fluorescent signals collected from individual cells were obtained using fluorescence Activated Cell Sorter (FACS).”
In more details, the cell staining procedure was: […] cell suspension in 10 μl FACS buffer (1×PBS, 2.0% FBS, 0.2% sodium azide) was mixed with 10 μl of 200 nM the corresponding anti-CCR7 MAB and incubated on ice for 30 min. Washing step—after the incubation 150 μl of FACS buffer was added to the cell sample, the samples were mixed gently by up-down pipetting the cell suspension. […] Fixed samples were stored in dark on ice and analyzed by FACS on Guava PCA-96 flow cytometer. The fluorescent signals collected from individual cells were obtained using fluorescence Activated Cell Sorter (FACS).

The target in assay [3] is T3, human CCR6 (human, UniProt P51684 1-374).
T3 construct: whole, on cells; CHO cells; also called CCR6 (human)
T3 sequence (looked up): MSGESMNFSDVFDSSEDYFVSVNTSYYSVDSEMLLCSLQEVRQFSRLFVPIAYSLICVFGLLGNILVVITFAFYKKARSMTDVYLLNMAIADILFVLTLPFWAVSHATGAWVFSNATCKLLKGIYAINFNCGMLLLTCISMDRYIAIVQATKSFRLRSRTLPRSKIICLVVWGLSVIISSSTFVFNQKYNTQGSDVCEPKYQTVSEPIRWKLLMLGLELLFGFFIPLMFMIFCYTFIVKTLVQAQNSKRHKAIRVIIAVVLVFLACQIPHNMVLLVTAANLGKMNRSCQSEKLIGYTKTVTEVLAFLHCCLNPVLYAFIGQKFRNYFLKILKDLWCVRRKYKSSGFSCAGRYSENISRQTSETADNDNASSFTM
The assay is described as follows: FACS, CHO-human CCR6 cells. The method, then: as §1

Assay [4] has as its target T4, human CXCR6 (human, UniProt O00574 1-342).
T4 construct: whole, on cells; CHO cells
The assay is described as follows: FACS, CHO-human CXCR6 cells.

Assay [5] addresses T5, human CCR9 (human, UniProt P51686 1-369).
T5 construct: whole, on cells; R1610 cells
T5 sequence (looked up): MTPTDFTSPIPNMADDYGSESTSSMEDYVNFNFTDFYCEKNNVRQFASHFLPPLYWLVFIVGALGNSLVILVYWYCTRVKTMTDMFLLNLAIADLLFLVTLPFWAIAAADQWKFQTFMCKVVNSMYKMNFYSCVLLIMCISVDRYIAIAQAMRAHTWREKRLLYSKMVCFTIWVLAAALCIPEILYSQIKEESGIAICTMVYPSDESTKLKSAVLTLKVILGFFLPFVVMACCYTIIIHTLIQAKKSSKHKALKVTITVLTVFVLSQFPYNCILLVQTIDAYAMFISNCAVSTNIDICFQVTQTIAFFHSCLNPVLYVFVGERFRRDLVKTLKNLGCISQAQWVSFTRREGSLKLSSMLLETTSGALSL
The assay is described as follows: FACS, R1610-human CCR9 cells. The protocol:
as §1

Assay [6] concerns the target T6, human CXCR4 (human, UniProt P61073 1-352).
T6 construct: whole, on cells; Cf2th cells
As to the kind of experiment: FACS, Cf2th-human CXCR4 cells. The method, then:
as §1

Assay [7] concerns the target T7, human CXCR1 (human, UniProt P25024 1-350).
T7 construct: whole, on cells; R1610 cells
T7 sequence (looked up): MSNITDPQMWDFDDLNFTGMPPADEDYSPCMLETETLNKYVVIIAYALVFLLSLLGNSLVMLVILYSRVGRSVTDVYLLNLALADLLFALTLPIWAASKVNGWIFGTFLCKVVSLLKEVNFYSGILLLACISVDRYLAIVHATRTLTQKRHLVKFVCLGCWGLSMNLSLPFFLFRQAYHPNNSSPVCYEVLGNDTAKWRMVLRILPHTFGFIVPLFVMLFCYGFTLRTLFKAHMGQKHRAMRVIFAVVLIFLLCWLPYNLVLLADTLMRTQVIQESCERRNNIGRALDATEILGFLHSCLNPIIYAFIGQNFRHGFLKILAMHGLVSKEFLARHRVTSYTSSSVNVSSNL
The assay is described as follows: FACS, R1610-human CXCR1 cells. The protocol: as §1

T6 sequence (P61073 whole entry): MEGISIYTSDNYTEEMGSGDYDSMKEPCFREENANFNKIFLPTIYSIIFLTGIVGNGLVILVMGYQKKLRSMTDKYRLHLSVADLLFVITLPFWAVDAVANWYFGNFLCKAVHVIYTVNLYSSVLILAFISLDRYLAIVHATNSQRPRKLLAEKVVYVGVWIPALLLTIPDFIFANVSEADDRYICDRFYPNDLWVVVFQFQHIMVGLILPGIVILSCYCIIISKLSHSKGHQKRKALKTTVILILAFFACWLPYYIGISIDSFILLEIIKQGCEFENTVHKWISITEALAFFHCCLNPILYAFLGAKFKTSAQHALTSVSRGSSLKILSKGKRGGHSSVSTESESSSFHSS
T4 sequence (O00574 whole entry): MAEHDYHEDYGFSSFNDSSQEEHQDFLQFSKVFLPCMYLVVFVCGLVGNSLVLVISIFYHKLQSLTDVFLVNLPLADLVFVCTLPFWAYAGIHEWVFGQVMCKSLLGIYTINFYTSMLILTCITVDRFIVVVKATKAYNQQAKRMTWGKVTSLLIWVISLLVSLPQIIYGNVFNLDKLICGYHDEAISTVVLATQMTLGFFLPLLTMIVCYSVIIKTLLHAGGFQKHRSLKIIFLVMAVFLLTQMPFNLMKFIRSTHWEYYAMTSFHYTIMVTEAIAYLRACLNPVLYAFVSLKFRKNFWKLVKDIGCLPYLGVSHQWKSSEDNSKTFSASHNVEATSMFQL

B1: MSM-R710 (fully human anti-human CCR7 antibody, IgG1) (antibody, V domains shown)
VH: EVQLLESGGGLVQPGGSLRLSCAASGFTFSNYTMHWVRQAPGKGLEWVSGIGPRSGRTYYADSVKGRFTISRDNSKNTLYLQMNSLRAEDTAVYYCARSYAYQYRGFDYWGQGTLVTVSS
VL: EIVLTQSPGTLSLSPGERATLSCRASQSVSSSYLAWYQQKPGQAPRLLIYGASSRATGIPDRFSGSGSGTDFTLTISRLEPEDFAVYYCQSSVTFGQGTKVEIKR
notes: IgG1 format
For the molecule B1, the binding result in assay [1], in assay [2], in assay [3], in assay [4], in assay [5] and in assay [6] was “no binding (tested: 200 nM MAB mixed 1:1 with cells)” in each case. Moreover, the binding result in assay [7] is on record as “no binding (tested: 200 nM MAB mixed 1:1 with cells)”.

B2: MSM-R735 (fully human anti-human CCR7 antibody, IgG1) (antibody)
heavy: not shown
light: EIVLTQSPGTLSLSPGERATLSCRASQSVSSSYLAWYQQKPGQAPRLLIYGASSRATGIPDRFSGSGSGTDFTLTISRLEPEDFAVYYCQQGSPVTFGQGTKVEIKRTVAAPSVFIFPPSDEQLKSGTASVVCLLNNFYPREAKVQWKVDNALQSGNSQESVTEQDSKDSTYSLSSTLTLSKADYEKHKVYACEVTHQGLSSPVTKSFNRGEC
notes: IgG1 format; also called R735 Human IgG1
Consider B2, for which the binding result in assay [1], in assay [2], in assay [3], in assay [4], in assay [5] and in assay [6] was “no binding (tested: 200 nM MAB mixed 1:1 with cells)” each time. In addition, in assay [7], the binding result is recorded as “no binding (tested: 200 nM MAB mixed 1:1 with cells)”.
